B1: Fig1 oligo X=A (dsDNA)
DNA 1: AGCGTGGGAGT
DNA 2: TACTCCCACGC
modifications: 5mC at strand 1 pos 3 and strand 2 pos 9
B2: Fig1 oligo X=T (dsDNA)
DNA 1: AGCGTGGGTGT
DNA 2: TACACCCACGC
modifications: 5mC at strand 1 pos 3 and strand 2 pos 9
B3: Fig1 oligo X=G (dsDNA)
DNA 1: AGCGTGGGGGT
DNA 2: TACCCCCACGC
modifications: 5mC at strand 1 pos 3 and strand 2 pos 9

Experiments:
Test in all cases: fluorescence polarization
WT1 ZF2-4 Q369R (-KTS) [1] = target: T1, WT1 ZF2-4 Q369R (-KTS) (Homo sapiens, UniProt P19544-4 350-437, Q369R)
WT1 ZF2-4 Q369H (-KTS) = WT1 ZF2-4 Q369H (-KTS) (Homo sapiens, UniProt P19544-4 350-437, Q369H)
Egr1 three-finger domain = Egr1 three-finger domain (UniProt P18146 335-423)
WT1 ZF2-4 Q369P (-KTS) = WT1 ZF2-4 Q369P (-KTS) (Homo sapiens, UniProt P19544-4 350-437, Q369P)
WT1 ZF2-4 Q369K (-KTS) = WT1 ZF2-4 Q369K (-KTS) (Homo sapiens, UniProt P19544-4 350-437, Q369K)
WT1 ZF2-4 Q369R (-KTS) [2] = target: T1, WT1 ZF2-4 Q369R (-KTS); remark: listed apart in the source

| Binder | binding signal (WT1 ZF2-4 Q369R (-KTS) [1]) | Kd (WT1 ZF2-4 Q369H (-KTS)) [nM] | binding result (Egr1 three-finger domain) | binding result (WT1 ZF2-4 Q369P (-KTS)) | Kd (WT1 ZF2-4 Q369K (-KTS)) [nM] | Kd (WT1 ZF2-4 Q369R (-KTS) [2]) [nM] |
| --- | --- | --- | --- | --- | --- | --- |
| B1 | ~5 fold lower affinity than X=G | 8 |  |  |  |  |
| B2 |  |  | binds | binds |  |  |
| B3 |  | < 3 |  |  | 14 | 24 |

Reference: article PMC5137435
